The data set deals with the molecule itself. Kind of data set: crystal structure.

B1: NaVAe1p, pore-only sodium channel protein derived from the Alkalilimnicola ehrlichei BacNaV NaVAe1 (domain or fragment)
chain: LLRAIPGIAWIALLLLVIFYVFAVMGTKLFAQSFPEWFGTLGASMYTLFQVMTLESWSMGIARPVIEAYPWAWIYFVSFILVSSFTVLNLFIGIIIESMQSAHWEAEDAKRIEQEQRAHDERLEMLQLIRDLSSKVDRLERRSGKR
Usually stoichiometry N stands for a count of units in the complex or per binding partner. Consider B1, for which the “stoichiometry N” value stood at 4.

The values are drawn from article PMC3947372 (Journal of molecular biology, 2013).
